± gives the uncertainty stated by the source.
B1: Neutrophil cytosol factor 2, residues 456 to 514; numbered along this chain, P19878 (parent)
chain: LKKGSQVEALFSYEATQPEDLEFQEGDIILVLSKVNEEWLEGECKGKVGIFPKVFVEDC

Variants of: B1
Assay: abundance fitness (aPCA) (normalised: wild type 0, dead -1); higher = more abundant; growth selection in yeast, the domain comes from the species named
Settings: Homo sapiens

First: LKKGSQVEALFSYEATQPEDLEFQEGDKILVLSKVNEEWLEGECKGKVGIFPKVFVEDC [I28K]
Second: LKKGSQVEALFSYEATQPEDLEFQEGDFILVLSKVNEEWLEGECKGKVGIFPKVFVEDC [I28F]
The abundance fitness of the first is higher: 0.638 ± 0.15 for the first, -0.443 ± 0.14 for the second.

LKKGSQVEALFSYEATQPEDLEFQEGDWILVLSKVNEEWLEGECKGKVGIFPKVFVEDC [I28W] and LKKGSQVEALFSYEATQPEDLEFQEGDQILVLSKVNEEWLEGECKGKVGIFPKVFVEDC [I28Q] are within error of each other in abundance fitness: 0.025 ± 0.15 for the first, 0.146 ± 0.2 for the second.

First: LKKGSQVEALFSYEATQPEDLEFQEGDNILVLSKVNEEWLEGECKGKVGIFPKVFVEDC [I28N]
Second: LKKGSQVEALFSYEATQPEDLEFQEGDCILVLSKVNEEWLEGECKGKVGIFPKVFVEDC [I28C]
The abundance fitness of the first is higher: 0.043 ± 0.11 for the first, -0.546 ± 0.11 for the second.

LKKGSQVEALFSYEATQPEDLEFQEGDMILVLSKVNEEWLEGECKGKVGIFPKVFVEDC [I28M] and LKKGSQVEALFSYEATQPEDLEFQEGDTILVLSKVNEEWLEGECKGKVGIFPKVFVEDC [I28T] are within error of each other in abundance fitness: -0.065 ± 0.13 for the first, 0.163 ± 0.11 for the second.

Compared with LKKGSQVEALFSYEATQPEDLEFQEGDLILVLSKVNEEWLEGECKGKVGIFPKVFVEDC [I28L], LKKGSQVEALFSYEATQPEDLEFQEGDYILVLSKVNEEWLEGECKGKVGIFPKVFVEDC [I28Y] is lower in abundance fitness: -0.284 ± 0.1 for the first, -0.546 ± 0.15 for the second.

First: LKKGSQVEALFSYEATQPEDLEFSEGDIILVLSKVNEEWLEGECKGKVGIFPKVFVEDC [Q24S]
Second: LKKGSQVEALFSYEATQPEDLEFPEGDIILVLSKVNEEWLEGECKGKVGIFPKVFVEDC [Q24P]
The abundance fitness of the first is higher: 0.286 ± 0.072 for the first, -0.727 ± 0.4 for the second.

LKKGSQVEALFSYEATQPEDLEFFEGDIILVLSKVNEEWLEGECKGKVGIFPKVFVEDC [Q24F] and LKKGSQVEALFSYEATQPEDLEFNEGDIILVLSKVNEEWLEGECKGKVGIFPKVFVEDC [Q24N] are within error of each other in abundance fitness: -0.224 ± 0.12 for the first, -0.002 ± 0.11 for the second.

LKKGSQVEALFSYEATQPEDLEFYEGDIILVLSKVNEEWLEGECKGKVGIFPKVFVEDC [Q24Y] and LKKGSQVEALFSYEATQPEDLEFMEGDIILVLSKVNEEWLEGECKGKVGIFPKVFVEDC [Q24M] are within error of each other in abundance fitness: -0.44 ± 0.21 for the first, -0.311 ± 0.27 for the second.

Going from LKKGSQVEALFSYEATQPEDLEFGEGDIILVLSKVNEEWLEGECKGKVGIFPKVFVEDC [Q24G] to LKKGSQVEALFSYEATQPEDLEFVEGDIILVLSKVNEEWLEGECKGKVGIFPKVFVEDC [Q24V], the abundance fitness rises from -0.805 ± 0.14 to -0.279 ± 0.11.

LKKGSQVEALFSYEATQPEDLEFCEGDIILVLSKVNEEWLEGECKGKVGIFPKVFVEDC [Q24C] and LKKGSQVEALFSYEATQPEDLEFREGDIILVLSKVNEEWLEGECKGKVGIFPKVFVEDC [Q24R] are within error of each other in abundance fitness: -0.197 ± 0.1 for the first, -0.234 ± 0.1 for the second.

Compared with LKKGSQVEALFSYEATQPEDLEFTEGDIILVLSKVNEEWLEGECKGKVGIFPKVFVEDC [Q24T], LKKGSQVEALFSYEATQPEDLEFDEGDIILVLSKVNEEWLEGECKGKVGIFPKVFVEDC [Q24D] is higher in abundance fitness: -0.257 ± 0.14 for the first, 0.235 ± 0.097 for the second.

First: LKKGSQVEALFSYEATQPEDLEFIEGDIILVLSKVNEEWLEGECKGKVGIFPKVFVEDC [Q24I]
Second: LKKGSQVEALFSYEATQPEDLEFAEGDIILVLSKVNEEWLEGECKGKVGIFPKVFVEDC [Q24A]
The abundance fitness of the first is lower: -0.688 ± 0.17 for the first, -0.186 ± 0.13 for the second.

LKKGSQVEALFSYEATQPEDLEFWEGDIILVLSKVNEEWLEGECKGKVGIFPKVFVEDC [Q24W] and LKKGSQVEALFSYEATQPEDLEFKEGDIILVLSKVNEEWLEGECKGKVGIFPKVFVEDC [Q24K] are within error of each other in abundance fitness: -0.14 ± 0.35 for the first, 0.047 ± 0.22 for the second.

First: LKKGSQVEALFSYEATQPEDLEFLEGDIILVLSKVNEEWLEGECKGKVGIFPKVFVEDC [Q24L]
Second: LKKGSQVEALFSYEATQPEDLEFHEGDIILVLSKVNEEWLEGECKGKVGIFPKVFVEDC [Q24H]
The abundance fitness of the first is lower: -0.535 ± 0.17 for the first, -0.035 ± 0.13 for the second.

First: LKKGSQVEALFSYEATQPEDLEFQEGIIILVLSKVNEEWLEGECKGKVGIFPKVFVEDC [D27I]
Second: LKKGSQVEALFSYEATQPEDLEFQEGTIILVLSKVNEEWLEGECKGKVGIFPKVFVEDC [D27T]
The abundance fitness of the first is higher: -0.179 ± 0.1 for the first, -0.695 ± 0.29 for the second.

Compared with LKKGSQVEALFSYEATQPEDLEFQEGLIILVLSKVNEEWLEGECKGKVGIFPKVFVEDC [D27L], LKKGSQVEALFSYEATQPEDLEFQEGVIILVLSKVNEEWLEGECKGKVGIFPKVFVEDC [D27V] is lower in abundance fitness: -0.28 ± 0.11 for the first, -0.969 ± 0.24 for the second.

LKKGSQVEALFSYEATQPEDLEFQEGWIILVLSKVNEEWLEGECKGKVGIFPKVFVEDC [D27W] and LKKGSQVEALFSYEATQPEDLEFQEGQIILVLSKVNEEWLEGECKGKVGIFPKVFVEDC [D27Q] are within error of each other in abundance fitness: -0.674 ± 0.26 for the first, -0.212 ± 0.27 for the second.

LKKGSQVEALFSYEATQPEDLEFQEGSIILVLSKVNEEWLEGECKGKVGIFPKVFVEDC [D27S] and LKKGSQVEALFSYEATQPEDLEFQEGMIILVLSKVNEEWLEGECKGKVGIFPKVFVEDC [D27M] are within error of each other in abundance fitness: -0.666 ± 0.11 for the first, -0.377 ± 0.26 for the second.

LKKGSQVEALFSYEATQPEDLEFQEGPIILVLSKVNEEWLEGECKGKVGIFPKVFVEDC [D27P] and LKKGSQVEALFSYEATQPEDLEFQEGFIILVLSKVNEEWLEGECKGKVGIFPKVFVEDC [D27F] are within error of each other in abundance fitness: -0.783 ± 0.33 for the first, -0.493 ± 0.14 for the second.

Compared with LKKGSQVEALFSYEATQPEDLEFQEGEIILVLSKVNEEWLEGECKGKVGIFPKVFVEDC [D27E], LKKGSQVEALFSYEATQPEDLEFQEGAIILVLSKVNEEWLEGECKGKVGIFPKVFVEDC [D27A] is higher in abundance fitness: -0.933 ± 0.44 for the first, -0.142 ± 0.14 for the second.

Going from LKKGSQVEALFSYEATQPEDLEFQEGRIILVLSKVNEEWLEGECKGKVGIFPKVFVEDC [D27R] to LKKGSQVEALFSYEATQPEDLEFQEGYIILVLSKVNEEWLEGECKGKVGIFPKVFVEDC [D27Y], the abundance fitness falls from -0.323 ± 0.11 to -0.613 ± 0.13.

LKKGSQVEALFSYEATQPEDLEFQEGKIILVLSKVNEEWLEGECKGKVGIFPKVFVEDC [D27K] and LKKGSQVEALFSYEATQPEDLEFQEGHIILVLSKVNEEWLEGECKGKVGIFPKVFVEDC [D27H] are within error of each other in abundance fitness: -0.365 ± 0.28 for the first, -0.488 ± 0.18 for the second.

In the case of LKKGSQVEALFSYEATQPEDLEFQEGCIILVLSKVNEEWLEGECKGKVGIFPKVFVEDC [D27C], the abundance fitness is reported as -0.301 ± 0.13.

— the Human Domainome abundance scans (Beltran et al. 2025)
